Data published in patent US20230044381A1 (GUANGDONG FEIPENG PHARMACEUTICAL, published 2023).

T1: Human ICOS-hFc (human, UniProt Q9Y6W8 21-140)
T1 construct: Bought (ACRO); also called ICOS (ACRO)
T1 sequence (looked up): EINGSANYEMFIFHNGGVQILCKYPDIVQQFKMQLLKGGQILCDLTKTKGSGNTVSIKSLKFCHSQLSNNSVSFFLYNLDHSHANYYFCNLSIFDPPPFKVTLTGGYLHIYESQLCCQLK

T2: Human CTLA4-hFc (human, UniProt P16410 37-162)
T2 construct: Bought (ACRO); also called CTLA-4 (ACRO)
T2 sequence (looked up): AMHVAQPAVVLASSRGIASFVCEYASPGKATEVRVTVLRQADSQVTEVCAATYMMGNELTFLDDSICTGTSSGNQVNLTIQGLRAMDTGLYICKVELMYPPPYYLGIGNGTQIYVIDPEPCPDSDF

T3: mouse PD1 on CHO cells (CHO-mousePD1) (mouse, UniProt Q02242 25-288)
T3 construct: whole, on cells; also called CHO-mPD1
T3 sequence (looked up): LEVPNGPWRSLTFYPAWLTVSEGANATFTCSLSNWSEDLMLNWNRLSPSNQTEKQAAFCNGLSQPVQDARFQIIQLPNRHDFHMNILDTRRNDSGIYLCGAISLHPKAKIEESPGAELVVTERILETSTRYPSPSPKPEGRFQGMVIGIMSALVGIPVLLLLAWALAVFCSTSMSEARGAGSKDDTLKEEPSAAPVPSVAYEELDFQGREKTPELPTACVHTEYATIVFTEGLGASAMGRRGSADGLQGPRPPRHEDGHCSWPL

B1: PD-1-97-C2 (antibody, V domains shown)
VH: EVKLVESGGGLVKPGGSLKLSCAASGFTFSSYGMSWIRQTPEKRLEWVATISGGGRDSYYPDSMKGRFAISRDNAKNNLYLQMSSLRSEDTALYYCTRQLGPAWFAYWGQGTLVTVSA
VL: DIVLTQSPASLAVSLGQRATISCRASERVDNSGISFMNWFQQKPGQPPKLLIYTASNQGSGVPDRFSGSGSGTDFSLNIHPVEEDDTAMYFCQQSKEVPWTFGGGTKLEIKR
notes: Mouse monoclonal antibody from a hybridoma; also called hybridoma clone 97
B2: PD-1-112-C2 (antibody, V domains shown)
VH: QVQLQQPGAELVKPGASVKLSCKASGYTFTTYYMYWVKQRPGQGLEWIGGINPSNGGTNFNEKFKSKATLTVDKSSSTAYMQLSSLTSEDSAVYYCTRRDSNYDGGFDYWGQGTTLTVSS
VL: DIVLTQSPASLAVSLGQRATISCRASKSVSTSGYSYMHWYQQKPGQPPKLLIYLAYHLESGVPARFSGSGSGTDFTLNIHPVEEEDAATYYCQHSWELPITFGSGTKLEIKR
notes: Mouse monoclonal antibody from a hybridoma; also called hybridoma clone 112
B3: PD-1-76-C2 (antibody, V domains shown)
VH: QIQLVQSGPELKKPGETVKISCKASGYTFTNYGMNWVKQAPGKGLKWMGWINTHTGEPTYADDFKGRFAFSLETSASTAYLQIKNLKNEDVATYFCTKEGEGIGFAYWGQGTLVTVSA
VL: DVLMTQTPLSLPVSLGDQASISCRSSQSIVYSNGKTYLEWYLQKPGQSPKLLIYKVSNRFSGVPDRFSGSGSGTDFTLKISRVEAEDLGVYYCFQGSHVPNTFGGGTKLEIKR
notes: Mouse monoclonal antibody from a hybridoma; also called PD-76-C2; PD-1-76-02

Molecular target: T4, PD-1-his (ACRO) recombinant protein (UniProt Q15116 25-167)
T4 construct: Bought (ACRO); loaded on a HIS1K biosensor
T4 sequence (Q15116 25-167 limits assumed): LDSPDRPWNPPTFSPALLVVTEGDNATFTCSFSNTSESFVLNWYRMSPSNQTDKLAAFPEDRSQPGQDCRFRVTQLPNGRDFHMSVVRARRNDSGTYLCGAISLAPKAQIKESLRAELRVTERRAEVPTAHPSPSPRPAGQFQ
Test: BLI (ForteBio Octet), PD-1-his loaded on HIS1K sensor, antibody in solution

Row | Kd | koff | kon | Binder
1 | < 0.001 nM | < 1e-07 s⁻¹ | 468000 M⁻¹ s⁻¹ | B1
2 | 0.0435 nM | 3.18e-05 s⁻¹ | 732000 M⁻¹ s⁻¹ | B2
3 | < 0.001 nM | < 1e-07 s⁻¹ | 771000 M⁻¹ s⁻¹ | B3

Molecular target: T5, monkey PD1 on CHO cells (CHO-cynoPD1) (monkey)
T5 construct: whole, on cells
Test: flow cytometry on CHO-cynoPD1 cells
Experimental: (§1) In order to evaluate binding of the anti-PD-1 mouse monoclonal antibody to CHO-hPD1, 2×10⁵ CHO-hPD1 cells and the anti-PD-1 mouse monoclonal antibody that diluted in a concentration gradient (the initial concentration was […], 3-fold serial dilution) were added to a 96-well plate. then it was incubated at 4° C. for 30 minutes. After the cells were washed once with a buffer (PBS containing 3% bovine serum albumin (BSA)), PE-labeled anti-mouse IgG(Fc) Ab (Biolegend) fluorescent secondary antibody was added, it was incubated at 4° C. for another 30 minutes. the cells were washed once with the buffer and resuspended in PBS, and then cell suspension was analyzed through flow cytometry by CytoFlex (Beckman flow cytometer), the amount of the antibody bound to the cells was measured according to the mean fluorescence intensity (MFI); the same method was used to evaluate binding of anti-PD-1 mouse monoclonal antibody to a CHO-cyno cell, and a CHO-mousePD1 (sometimes abbreviated as “CHO-mPD1” in the present invention) cell.

Row | EC50 | Binder
4 | 0.578 nM | B1
5 | 0.463 nM | B2
6 | 0.576 nM | B3

Molecular target: T6, human PD-1 on the cell surface (CHO-hPD1 cells; PHA-activated human PBMC) (human, UniProt Q15116 25-288)
T6 construct: whole, on cells; the assay field tells which; also called CHO-PD1
T6 sequence (Q15116 25-288): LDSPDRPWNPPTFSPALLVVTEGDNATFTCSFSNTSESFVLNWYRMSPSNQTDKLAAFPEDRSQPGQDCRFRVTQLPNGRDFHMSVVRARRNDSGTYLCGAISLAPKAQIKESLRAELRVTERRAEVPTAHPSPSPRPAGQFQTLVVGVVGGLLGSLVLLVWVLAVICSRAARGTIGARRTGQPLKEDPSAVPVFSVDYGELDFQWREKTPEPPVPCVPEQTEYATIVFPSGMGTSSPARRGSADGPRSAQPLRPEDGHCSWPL
Test: flow cytometry on PHA-activated human PBMC
Experimental: After PBMC was obtained from fresh human peripheral blood by a lymphatic separation fluid gradient centrifugation method, the density was adjusted to 1×10⁶ cells/ml and then inoculated into T75. At the same time, PHA-L (Sigma) at a final concentration of 1 μg/ml was added to stimulate lymphocyte proliferation. After standing in an incubator supplied with 37° C. and 5% CO₂ for 3 days, cell suspension was taken out and centrifuged to remove the supernatant. Cells were resuspended in a buffer (PBS containing 3% BSA), and added into a 96-well U-shaped plate at a density of 2*10⁵ cells/well. And then the anti-PD1 antibody that prepared for a total of 10 concentration gradients (started from 30 μg/ml, diluted in a 3-fold gradient) was added. After incubation at 4° C. for 30 minutes, the plate was centrifuged at 300 g for 5 minutes, cells were washed once with the buffer, A PE-labeled goat anti-human IgG fluorescent antibody (Biolegend) was added, and incubated at 4° C. for 30 minutes; after incubation, the cells were washed once by centrifugation resuspended in PBS, and analyzed by a CytoFlex flow cytometer, to detect the amount of the antibody bound to PBMC.

Row | EC50 | Binder
7 | 1.03 nM | B1
8 | 0.109 nM | B2
9 | 0.02 nM | B3

Molecular target: T6, human PD-1 on the cell surface …
Test: flow cytometry on CHO-hPD1 cells
Experimental: as §1

Row | EC50 | Binder
10 | 0.745 nM | B1
11 | 0.739 nM | B2
12 | 0.583 nM | B3

Molecular target: T7, Human CD28-hFc (human, UniProt P10747 19-152)
T7 construct: Bought (ACRO); also called CD28 (ACRO)
T7 sequence (P10747 19-152): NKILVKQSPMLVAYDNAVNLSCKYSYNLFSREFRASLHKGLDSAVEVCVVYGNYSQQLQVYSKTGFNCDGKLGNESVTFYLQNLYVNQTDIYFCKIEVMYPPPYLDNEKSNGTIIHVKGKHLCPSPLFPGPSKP
Test: ELISA, antigen coated at 1 µg/ml
Experimental: (§2) To verify the specificity of the antibody binding to PD-1, the binding assay of anti-PD-1 mouse monoclonal antibody with four different CD28 family member proteins was conducted. […] Anti-mouse IgG coupled with peroxidase (HRP) was used as a secondary antibody (Sigma). The color was developed by TMB, and after reaction termination, the absorbance was read by a microplate reader.

Row | binding result | Binder
13 | no binding (tested: 10 µg/ml) | B1
14 | no binding (tested: 10 µg/ml) | B2
15 | no binding (tested: 10 µg/ml) | B3

Molecular target: T1, Human ICOS-hFc
Test: ELISA, antigen coated at 1 µg/ml
Experimental: as §2

Row | binding result | Binder
16 | no binding (tested: 10 µg/ml) | B1
17 | no binding (tested: 10 µg/ml) | B2
18 | no binding (tested: 10 µg/ml) | B3

Molecular target: T2, Human CTLA4-hFc
Test: ELISA, antigen coated at 1 µg/ml
Experimental: as §2

Row | binding result | Binder
19 | no binding (tested: 10 µg/ml) | B1
20 | no binding (tested: 10 µg/ml) | B2
21 | no binding (tested: 10 µg/ml) | B3

Molecular target: T6, human PD-1 on the cell surface …
Test: flow cytometry, blocking of PD-L2-hFc (3 µg/ml) on CHO-hPD1 cells, mode 2 (antibody added first)
Experimental: (§3) The ability of the anti-PD-1 mouse monoclonal antibody to block the binding of the ligand to CHO-hPD1 cells was analyzed by a flow cytometer.
(§4) The plate was centrifuged at 300 g for 5 minutes, cells were washed once with a buffer, a PE-labeled goat anti-human IgG fluorescent antibody (Biolegend) was added, and incubated at 4° C. for 30 minutes. After the cells were washed once by centrifugation, the cells were resuspended in PBS, and then analyzed by a Cyto Flex flow cytometer, to detect the amount of the ligand protein bound to the cells, and the IC₅₀ value of the PD-1 antibody blocking was calculated.

Row | IC50 | Binder
22 | 3.49 nM | B1
23 | 3.73 nM | B2
24 | 3.11 nM | B3

Molecular target: T6, human PD-1 on the cell surface …
Test: flow cytometry, blocking of PD-L2-hFc (3 µg/ml) on CHO-hPD1 cells, mode 1 (ligand added first)
Experimental: as §3, §4

Row | IC50 | Binder
25 | 7.54 nM | B1
26 | 4.61 nM | B2
27 | 4.67 nM | B3

Molecular target: T7, Human CD28-hFc
Test: ELISA, antigen coated at 1 µg/ml, antibody 10 µg/ml
Experimental: as §2

Row | OD value | Binder
28 | 0.0606 OD | B1
29 | 0.0625 OD | B2
30 | 0.0616 OD | B3

Molecular target: T1, Human ICOS-hFc
Test: as above
Experimental: as §2

Row | OD value | Binder
31 | 0.0636 OD | B1
32 | 0.062 OD | B2
33 | 0.076 OD | B3

Molecular target: T2, Human CTLA4-hFc
Test: as above
Experimental: as §2

Row | OD value | Binder
34 | 0.129 OD | B1
35 | 0.131 OD | B2
36 | 0.146 OD | B3

Molecular target: T8, Human PD-1-hFc (human, UniProt Q15116 25-167)
T8 construct: Bought (ACRO); also called PD-1 (ACRO)
T8 sequence (Q15116 25-167): as the sequence (Q15116 25-167 limits assumed) above
Test: as above
Experimental: as §2

Row | OD value | Binder
37 | 2.37 OD | B1
38 | 2.12 OD | B2
39 | 2.46 OD | B3

Molecular target: T3, mouse PD1 on CHO cells (CHO-mousePD1)
Test: flow cytometry on CHO-mousePD1 cells
Experimental: as §1

Row | binding result | Binder
40 | no binding | B1
41 | no binding | B2
42 | no binding | B3

Molecular target: T6, human PD-1 on the cell surface …
Test: flow cytometry, blocking of PD-L1-hFc (3 µg/ml) on CHO-hPD1 cells, mode 1 (ligand added first)
Experimental: as §3, §4

Row | IC50 | Binder
43 | 2.22 nM | B1
44 | 2.57 nM | B2
45 | 2.28 nM | B3

Molecular target: T6, human PD-1 on the cell surface …
Test: flow cytometry, blocking of PD-L1-hFc (3 µg/ml) on CHO-hPD1 cells, mode 2 (antibody added first)
Experimental: as §3, §4

Row | IC50 | Binder
46 | 1.62 nM | B1
47 | 1.55 nM | B2
48 | 1.4 nM | B3
